Reference: US20030181404A1 (BETH ISRAEL DEACONESS MEDICAL CENTER, published 2003)

Experiments:
ErbB-3 = biological target: T1, ErbB-3 (human (human breast cancer cell line), UniProt P21860 20-1342, tyrosine-phosphorylated upon HRG stimulation (sites not given)); assay: co-immunoprecipitation with anti-CHK antibody from HRG-stimulated Flag-CHK MCF-7 lysates, anti-ErbB-3 immunoblot
T1 construct: also called p180 ErbB-3

ErbB-4 = biological target: T2, ErbB-4 (human (human breast cancer cell line), UniProt Q15303 26-1308, limits assumed); assay: co-immunoprecipitation from HRG-stimulated Flag-CHK MCF-7 lysates
T2 construct: also called p180 ErbB-4
T2 sequence (Q15303 26-1308 limits assumed): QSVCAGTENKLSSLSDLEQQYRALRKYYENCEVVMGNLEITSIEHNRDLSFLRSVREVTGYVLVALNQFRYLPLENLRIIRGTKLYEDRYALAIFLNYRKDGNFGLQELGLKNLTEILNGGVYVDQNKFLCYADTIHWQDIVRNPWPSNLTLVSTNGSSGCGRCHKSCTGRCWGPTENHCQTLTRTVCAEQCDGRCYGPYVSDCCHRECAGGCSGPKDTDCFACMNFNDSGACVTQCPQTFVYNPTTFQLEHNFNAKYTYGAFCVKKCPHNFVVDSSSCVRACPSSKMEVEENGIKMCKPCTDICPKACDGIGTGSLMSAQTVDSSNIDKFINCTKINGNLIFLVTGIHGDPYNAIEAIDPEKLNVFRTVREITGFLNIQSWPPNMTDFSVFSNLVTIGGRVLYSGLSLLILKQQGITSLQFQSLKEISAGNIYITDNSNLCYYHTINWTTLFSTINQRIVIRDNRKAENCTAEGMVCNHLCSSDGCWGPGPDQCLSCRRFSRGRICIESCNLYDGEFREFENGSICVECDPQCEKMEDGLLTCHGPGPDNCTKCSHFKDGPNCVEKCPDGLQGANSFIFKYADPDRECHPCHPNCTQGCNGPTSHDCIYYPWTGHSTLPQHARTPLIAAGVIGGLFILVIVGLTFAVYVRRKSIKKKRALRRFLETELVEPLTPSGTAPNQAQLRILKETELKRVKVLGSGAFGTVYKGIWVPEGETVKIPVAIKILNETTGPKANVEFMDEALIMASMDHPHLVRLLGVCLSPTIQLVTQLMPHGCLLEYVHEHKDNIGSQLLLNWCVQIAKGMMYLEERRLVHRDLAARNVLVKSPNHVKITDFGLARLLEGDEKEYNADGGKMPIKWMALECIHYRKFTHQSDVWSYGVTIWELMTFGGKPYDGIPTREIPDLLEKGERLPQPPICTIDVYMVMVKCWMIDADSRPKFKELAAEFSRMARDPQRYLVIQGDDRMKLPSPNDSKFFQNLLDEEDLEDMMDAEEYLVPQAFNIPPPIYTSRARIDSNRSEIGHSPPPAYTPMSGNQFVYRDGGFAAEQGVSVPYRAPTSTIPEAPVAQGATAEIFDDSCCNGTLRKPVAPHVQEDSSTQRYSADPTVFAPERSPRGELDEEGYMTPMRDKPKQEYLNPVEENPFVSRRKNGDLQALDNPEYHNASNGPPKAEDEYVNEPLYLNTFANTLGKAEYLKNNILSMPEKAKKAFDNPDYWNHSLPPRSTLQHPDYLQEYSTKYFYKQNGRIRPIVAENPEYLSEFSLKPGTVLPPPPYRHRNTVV

[1] = biological target: EGF receptor (EGF-R, ErbB-1) (human (human breast cancer cell lines), UniProt P00533 25-1210); assay: co-immunoprecipitation with anti-CHK antibodies from EGF-stimulated Flag-CHK MCF-7 lysates, immunoblot

Measured: binding result

T1 sequence (P21860 20-1342 limits assumed): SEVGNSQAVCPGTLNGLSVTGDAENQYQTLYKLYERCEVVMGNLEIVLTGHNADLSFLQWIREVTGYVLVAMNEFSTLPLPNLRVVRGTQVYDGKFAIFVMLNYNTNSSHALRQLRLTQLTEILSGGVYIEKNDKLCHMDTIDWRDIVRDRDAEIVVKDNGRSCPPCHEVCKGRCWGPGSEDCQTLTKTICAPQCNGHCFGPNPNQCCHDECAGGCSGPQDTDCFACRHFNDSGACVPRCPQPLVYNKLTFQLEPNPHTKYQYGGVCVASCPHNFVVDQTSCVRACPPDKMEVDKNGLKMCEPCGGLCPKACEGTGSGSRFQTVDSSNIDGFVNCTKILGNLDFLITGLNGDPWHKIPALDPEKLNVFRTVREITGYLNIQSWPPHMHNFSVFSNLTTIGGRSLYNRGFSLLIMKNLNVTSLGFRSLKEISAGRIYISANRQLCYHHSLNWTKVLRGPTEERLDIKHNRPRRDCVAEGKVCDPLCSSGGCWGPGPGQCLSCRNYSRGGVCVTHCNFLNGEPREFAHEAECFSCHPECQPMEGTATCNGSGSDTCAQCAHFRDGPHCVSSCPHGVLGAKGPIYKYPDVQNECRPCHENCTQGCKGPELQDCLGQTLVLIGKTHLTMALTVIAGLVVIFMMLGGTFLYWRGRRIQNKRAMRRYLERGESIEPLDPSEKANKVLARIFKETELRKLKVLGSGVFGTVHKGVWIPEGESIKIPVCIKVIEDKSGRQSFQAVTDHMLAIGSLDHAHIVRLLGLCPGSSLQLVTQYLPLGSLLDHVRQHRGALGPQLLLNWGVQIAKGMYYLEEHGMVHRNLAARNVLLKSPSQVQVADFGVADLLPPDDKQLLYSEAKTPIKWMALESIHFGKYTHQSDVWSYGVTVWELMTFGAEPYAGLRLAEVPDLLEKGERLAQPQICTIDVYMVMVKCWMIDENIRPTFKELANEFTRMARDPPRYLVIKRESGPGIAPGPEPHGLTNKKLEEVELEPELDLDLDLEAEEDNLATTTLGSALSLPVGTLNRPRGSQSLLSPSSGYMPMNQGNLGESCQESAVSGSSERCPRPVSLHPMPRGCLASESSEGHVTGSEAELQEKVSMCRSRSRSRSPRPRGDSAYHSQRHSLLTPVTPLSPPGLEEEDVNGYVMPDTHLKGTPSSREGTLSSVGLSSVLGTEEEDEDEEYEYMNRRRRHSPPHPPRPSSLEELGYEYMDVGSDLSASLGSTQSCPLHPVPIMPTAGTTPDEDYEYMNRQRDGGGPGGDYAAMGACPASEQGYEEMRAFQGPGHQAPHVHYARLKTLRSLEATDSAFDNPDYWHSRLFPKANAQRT

B1: Flag-CHK (Flag epitope-tagged CHK expressed in MCF-7 cells from pCDNA3 neo) (enzyme)
chain: DYKDDDDKMAGRGSLVSWRAFHGCDSAEELPRVSPRFLRAWHPPPVSARMPTRRWAPGTQCITKCEHTRPKPGELAFRKGDVVTILEACENKSWYRVKHHTSGQEGLLAAGALRDGEALSADPKLSLMPWFHGKISGQEAVQQLQPPEDGLFLVRESARHPGDYVLCVSFGRDVIHYRVLHRDGHLTIDEAVFFCNLMDMVEHYSKDKGAICTKLVRPKRKHGTKSAEEELARAGWLLNLQHLTLGAQIGEGEFGAVLQGEYLGQKVAVKNIKCDVTAQAFLDETAVMTKMQHENLVRLLGVILHQGLYIVMEHVSKGNLVNFLRTRGRALVNTAQLLQFSLHVAEGMEYLESKKLVHRDLAARNILVSEDLVAKVSDFGLAKAERKGLDSSRLPVKWTAPEALKHGFTSKSDVWSFGVLLWEVFSYGRAPYPKMSLKEVSEAVEKGYRMEPPEGCPGPVHVLMSSCWEAEPPAGHPSANWPRSWPGSYAVQVPQPPSQGRTPTVHLAPKPGALTPPGGPWPQRTERVESAAWGH
notes: An initiator Met stands before the Flag tag; also called intact CHK
no binding: all assays above
